Test results taken from patent US20210317456.

Columns and labels:
[1] = system: Immunoglobulin G (total IgG) (Homo sapiens); assay: filter
IgA (Homo sapiens) [2] = assay: filter; settings: n (P) = NapdU; Zorbax, SB18, 37 C
[3] = system: IgG3-Fc (Homo sapiens), P01860-1; assay: filter; settings: n (P) = NapdU; Zorbax, SB18, 37 C
[4] = system: IgG1-Fc (Homo sapiens), P01857-1; assay: filter; settings: n (P) = NapdU; Zorbax, SB18, 37 C
[5] = system: β-FGFR fusion (Fc fusion protein) (Homo sapiens); assay: filter; settings: n (P) = NapdU; Zorbax, SB18, 37 C
IgM (Homo sapiens) [6] = assay: filter; settings: n (P) = NapdU; Zorbax, SB18, 37 C
[7] = system: Immunoglobulin G (total IgG); assay: pulldown
[8] = system: IgG4-Kappa (Homo sapiens), P01861-1+P01834; assay: pulldown; settings: Protein L beads
[9] = system: IgG3-Kappa (Homo sapiens), P01860-1+P01834; assay: pulldown; settings: Protein L beads
[10] = system: IgG1-Kappa (Homo sapiens), P01857-1+P01834; assay: pulldown; settings: Protein L beads
IgA (Homo sapiens) [11] = assay: pulldown; settings: P = NapdU; Zorbax beads, SB18, 37C
[12] = system: IgG3-Fc (Homo sapiens), P01860-1; assay: pulldown; settings: P = NapdU; 37C, bead partitioning
[13] = system: IgG1-Fc (Homo sapiens), P01857-1; assay: pulldown; settings: P = NapdU; 37C, bead partitioning
[14] = system: Total IgG (monkey) (monkey); assay: pulldown; settings: P = NapdU; Zorbax beads, SB18, 37C
[15] = system: IgG4-Fc (Homo sapiens), P01861-1; assay: pulldown; settings: P = NapdU; 37C, bead partitioning
IgD (Homo sapiens) = assay: pulldown; settings: P = NapdU; Zorbax beads, SB18, 37C
[16] = system: β-FGFR fusion (Fc fusion protein) (Homo sapiens); assay: pulldown; settings: P = NapdU; 37C, bead partitioning
IgM (Homo sapiens) [17] = assay: pulldown; settings: P = NapdU; Zorbax beads, SB18, 37C
[18] = n (P) = NapdU, SB18, 5 mM MgCl2, 37 C
[19] = n (P) = 2NapdU, SB18, 5 mM MgCl2, 37 C
[20] = n (P) = NapdU, considered no binding
[21] = n (P) = 2NapdU, considered no binding
[22] = n (P) = NapdU, SB18, 5 mM MgCl2, 37 C, sequence identical to _21 to _25
[23] = P = NapdU, SB18, 37C, bead partitioning

Chain of IgG3-Kappa (Homo sapiens), P01860-1+P01834 (P01860 other isoform, or with tags, fused parts or gaps, chain 1 of 2, other chains not shown): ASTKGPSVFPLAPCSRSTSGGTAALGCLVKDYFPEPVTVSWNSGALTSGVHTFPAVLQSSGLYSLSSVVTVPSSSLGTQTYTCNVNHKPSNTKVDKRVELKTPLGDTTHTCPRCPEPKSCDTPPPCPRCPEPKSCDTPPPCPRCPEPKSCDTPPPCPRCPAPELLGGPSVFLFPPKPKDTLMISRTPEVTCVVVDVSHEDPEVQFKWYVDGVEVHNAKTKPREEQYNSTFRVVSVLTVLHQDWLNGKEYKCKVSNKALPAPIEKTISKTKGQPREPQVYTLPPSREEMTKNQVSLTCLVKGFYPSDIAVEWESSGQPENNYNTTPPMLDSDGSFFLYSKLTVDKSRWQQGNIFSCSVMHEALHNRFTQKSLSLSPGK
Chain of IgG3-Fc (Homo sapiens), P01860-1 (P01860 other isoform, or with tags, fused parts or gaps): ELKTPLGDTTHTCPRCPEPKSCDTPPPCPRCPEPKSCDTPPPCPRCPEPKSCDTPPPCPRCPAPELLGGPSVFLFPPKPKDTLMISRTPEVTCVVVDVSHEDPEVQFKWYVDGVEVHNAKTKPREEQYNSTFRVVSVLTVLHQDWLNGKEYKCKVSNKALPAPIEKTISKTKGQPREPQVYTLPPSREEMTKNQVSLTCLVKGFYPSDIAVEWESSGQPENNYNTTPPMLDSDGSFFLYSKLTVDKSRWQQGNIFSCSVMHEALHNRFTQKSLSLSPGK
Chain of IgG4-Kappa (Homo sapiens), P01861-1+P01834 (P01861 other isoform, or with tags, fused parts or gaps, chain 1 of 2, other chains not shown): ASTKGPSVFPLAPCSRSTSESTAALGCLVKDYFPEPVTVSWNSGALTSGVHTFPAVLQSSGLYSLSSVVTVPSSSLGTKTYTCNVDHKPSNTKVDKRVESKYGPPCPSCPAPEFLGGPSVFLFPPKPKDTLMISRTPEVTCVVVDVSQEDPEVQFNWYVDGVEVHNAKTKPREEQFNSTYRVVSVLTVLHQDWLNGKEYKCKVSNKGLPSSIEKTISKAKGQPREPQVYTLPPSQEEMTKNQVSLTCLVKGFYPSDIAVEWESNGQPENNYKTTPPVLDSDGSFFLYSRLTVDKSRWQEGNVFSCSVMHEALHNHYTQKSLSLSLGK
Chain of IgG4-Fc (Homo sapiens), P01861-1 (P01861 other isoform, or with tags, fused parts or gaps): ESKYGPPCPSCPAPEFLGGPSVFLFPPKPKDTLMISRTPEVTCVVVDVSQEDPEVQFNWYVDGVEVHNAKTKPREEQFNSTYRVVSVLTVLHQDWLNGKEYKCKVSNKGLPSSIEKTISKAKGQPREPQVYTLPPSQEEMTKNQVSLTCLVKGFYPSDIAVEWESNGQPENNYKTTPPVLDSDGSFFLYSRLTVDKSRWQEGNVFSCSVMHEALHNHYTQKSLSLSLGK

ACGGTACGATTTTCAGTTGGATCCAGTAC [5406-56_46]
Kd [1, 18]: 8.14 nM

ACGGTACGATTTTCAGTTGGATCCAGTACC [5406-56_40]
Kd [1, 18]: 4.32 nM

ACGGTACGATTTTCAGTTGGATCCAGTACCT [5406-56_34]
Kd [1, 18]: 3.36 nM

ACGGTACGATTTTCAGTTGGATCCAGTACCTG [5406-56_28]
Kd [1, 18]: 3.64 nM

ACGGTACGATTTTCAGTTGGATCCAGTACCTGG [5406-56_22]
Kd ([1]; n (P) = NapdU, Zorbax bead partitioning, SB18, 5 mM MgCl2, 37 C, printed sequence identical to _21 to _25, length unclear): 4.93 nM

ACTCCACATCCAAGACTGCGGTTACCTTGTAGGCGATTATGGGCAG [5334-8_5]
Kd [1, 19]: 5.92 nM

ACTCCCTGAATGCTCTTGTCTTAAGTCCCCAACA [14125-144_11]
Kd [1, 20]: > 1000 nM

ACTGCGGTTACCTTGTAGGCGATTATGGGCAG [5334-8_22]
Kd [1, 19]: 5.77 nM

AGACTGCGGTTACCTTGTAGGCGATT [5334-8_33]
Kd [1, 21]: > 1000 nM

AGACTGCGGTTACCTTGTAGGCGATTAT [5334-8_32]
Kd [1, 21]: > 1000 nM

AGACTGCGGTTACCTTGTAGGCGATTATGGGCA [5334-8_28]
Kd [1, 19]: 8.45 nM

ATGGCGAACTCCCTGAATGCTCTTGTC [14125-144_37]
Kd [1, 20]: > 1000 nM

ATGGCGAACTCCCTGAATGCTCTTGTCT [14125-144_33]
Kd [1, 20]: > 1000 nM

ATGGCGAACTCCCTGAATGCTCTTGTCTT [14125-144_29]
Kd [1, 18]: 11.6 nM

ATGGCGAACTCCCTGAATGCTCTTGTCTTA [14125-144_25]
Kd [1, 18]: 7.55 nM

ATGGCGAACTCCCTGAATGCTCTTGTCTTAA [14125-144_21]
Kd [1, 18]: 5.5 nM

CAAGACTGCGGTTACCTTGTAGGCGATTATGGGCAG [5334-8_10]
Kd [1, 19]: 5.38 nM

CACATCCAAGACTGCGGTTACCTTGTAGGCGATTATGGGCAG [5334-8_7]
Kd [1, 19]: 5.89 nM

CATCCAAGACTGCGGTTACCTTGTAGGCGATTATGGGCAG [5334-8_8]
Kd [1, 19]: 9.69 nM

CCTCCATACGGTACGATTTTCAGTTGGATCCAGTACCTGGCTGGAGAGAA [5406-56_3]
Kd (IgA (Homo sapiens) [2]): 200 nM
Kd [3]: 400 nM
Kd [4]: 2 nM
Kd [5]: 3 nM
Kd (IgM (Homo sapiens) [6]): 100 nM
Kd ([7]; P = NapdU at all n positions, SB18, 5 mM MgCl2, 37C, bead partitioning, 4.54 nM in Table 2): 3.13 nM
Kd ([8]; n (P) = NapdU, SB17, 37 C): 20 nM
Kd ([9]; n (P) = NapdU, SB17, 37 C): 80 nM
Kd ([10]; n (P) = NapdU, SB17, 37 C): 2 nM

CGGCACTCCACATCCAAGACTGCGGTTACCTTGTAG [5334-8_18]
Kd [1, 21]: > 1000 nM

CGGCACTCCACATCCAAGACTGCGGTTACCTTGTAGGC [5334-8_17]
Kd [1, 21]: > 1000 nM

CGGCACTCCACATCCAAGACTGCGGTTACCTTGTAGGCGA [5334-8_16]
Kd [1, 21]: > 1000 nM

CGGCACTCCACATCCAAGACTGCGGTTACCTTGTAGGCGATTAT [5334-8_14]
Kd [1, 21]: > 1000 nM

CGGTACGATTTTCAGTTGGATCCAGTAC [5406-56_47]
Kd [1, 18]: 5.7 nM

CGGTACGATTTTCAGTTGGATCCAGTACCT [5406-56_35]
Kd [1, 18]: 3.42 nM

CGGTACGATTTTCAGTTGGATCCAGTACCTG [5406-56_29]
Kd [1, 18]: 3.49 nM

CGGTACGATTTTCAGTTGGATCCAGTACCTGG [5406-56_23]
Kd [1, 22]: 5.48 nM

CTGCACGATGGCGAACTCCCTGAATGCTCTTGTCTTAAGTCCCCAACA [14125-144_4]
Kd [1, 18]: 10.5 nM

GACTGCGGTTACCTTGTAGGCGATTATGGGCAG [5334-8_21]
Kd [1, 19]: 6.77 nM

GATGGCGAACTCCCTGAATGCTCTTGTC [14125-144_36]
Kd [1, 20]: > 1000 nM

GATGGCGAACTCCCTGAATGCTCTTGTCT [14125-144_32]
Kd [1, 20]: > 1000 nM

GATGGCGAACTCCCTGAATGCTCTTGTCTT [14125-144_28]
Kd [1, 18]: 17.2 nM

GATGGCGAACTCCCTGAATGCTCTTGTCTTA [14125-144_24]
Kd [1, 18]: 9.89 nM

GATGGCGAACTCCCTGAATGCTCTTGTCTTAA [14125-144_20]
Kd [1, 18]: 6.67 nM

GATGGCGAACTCCCTGAATGCTCTTGTCTTAAGTCCCCAACA [14125-144_7]
Kd [1, 18]: 6.96 nM

GCACGATGGCGAACTCCCTGAATGCTCTTGTCTTAAGTCCCCAACA [14125-144_5]
Kd [1, 18]: 8.87 nM

GCCTGCACGATGGCGAACTCCCTGAATGCTCTTG [14125-144_19]
Kd [1, 20]: > 1000 nM

GCCTGCACGATGGCGAACTCCCTGAATGCTCTTGTCTTAA [14125-144_16]
Kd [1, 18]: 8.82 nM

GCCTGCACGATGGCGAACTCCCTGAATGCTCTTGTCTTAAGTCC [14125-144_14]
Kd [1, 18]: 15.8 nM

GCCTGCACGATGGCGAACTCCCTGAATGCTCTTGTCTTAAGTCCCC [14125-144_13]
Kd [1, 18]: 14.3 nM

GCCTGCACGATGGCGAACTCCCTGAATGCTCTTGTCTTAAGTCCCCAA [14125-144_12]
Kd [1, 18]: 17.2 nM

GGCGAACTCCCTGAATGCTCTTGTC [14125-144_39]
Kd [1, 20]: > 1000 nM

GGCGAACTCCCTGAATGCTCTTGTCT [14125-144_35]
Kd [1, 20]: > 1000 nM

GGTACGATTTTCAGTTGGATCCAGTAC [5406-56_48]
Kd (IgA (Homo sapiens) [11]): 200 nM
Kd [12]: 70 nM
Kd [13]: 3 nM
Kd ([7]; P = NapdU, SB18, 37C, 6E-09 M in Table 7): 5.81 nM
Kd [14]: 100 nM
Kd [15]: 30 nM
Kd ([8]; P = NapdU, SB17, 37C): 50 nM
Kd (IgD (Homo sapiens)): 500 nM
Kd ([9]; P = NapdU, SB17, 37C): 100 nM
Kd ([10]; P = NapdU, SB17, 37C): 2 nM
Kd [16]: 4 nM
Kd (IgM (Homo sapiens) [17]): 70 nM

GGTACGATTTTCAGTTGGATCCAGTACC [5406-56_42]
Kd [1, 18]: 4.97 nM

GGTACGATTTTCAGTTGGATCCAGTACCT [5406-56_36]
Kd [1, 18]: 3.44 nM

GGTACGATTTTCAGTTGGATCCAGTACCTG [5406-56_30]
Kd [1, 18]: 3.22 nM

GGTACGATTTTCAGTTGGATCCAGTACCTGG [5406-56_24]
Kd [1, 22]: 5.1 nM

GTACGATTTTCAGTTGGATCCAGTACC [5406-56_43]
Kd [1, 18]: 11 nM

GTACGATTTTCAGTTGGATCCAGTACCTGG [5406-56_25]
Kd [1, 22]: 21.9 nM

TACGATTTTCAGTTGGATCCAGTACCTG [5406-56_32]
Kd [7, 23]: 75.4 nM

TACGATTTTCAGTTGGATCCAGTACCTGG [5406-56_26]
Kd [7, 23]: 64.3 nM

TACGGTACGATTTTCAGTTGGATCCAGTAC [5406-56_45]
Kd [1, 18]: 21.8 nM

TACGGTACGATTTTCAGTTGGATCCAGTACC [5406-56_39]
Kd [1, 18]: 6.74 nM

TACGGTACGATTTTCAGTTGGATCCAGTACCT [5406-56_33]
Kd [1, 18]: 5.31 nM

TACGGTACGATTTTCAGTTGGATCCAGTACCTG [5406-56_27]
Kd [1, 18]: 5.56 nM

TACGGTACGATTTTCAGTTGGATCCAGTACCTGG [5406-56_21]
Kd ([7]; P = NapdU, SB18, 37C, table prints a shorter sequence than the listing for SEQ 18): 8.13 nM

TACGGTACGATTTTCAGTTGGATCCAGTACCTGGCTGGAGAGAA [5406-56_6]
Kd [7, 23]: 9.05 nM

TCCAAGACTGCGGTTACCTTGTAGGCGATTATGGGCAG [5334-8_9]
Kd [1, 19]: 8.38 nM

TCCACATCCAAGACTGCGGTTACCTTGTAGGCGATTATGGGCAG [5334-8_6]
Kd ([7]; P = 2NapdU, SB18, 37C, bead partitioning): 7.89 nM

TCCATACGGTACGATTTTCAGTTGGATCCAGTACCTGGCTGGAGAGAA [5406-56_4]
Kd [7, 23]: 3.11 nM

TGCGGTTACCTTGTAGGCGATTATGGGCAG [5334-8_24]
Kd [1, 19]: 5.51 nM

TGGCGAACTCCCTGAATGCTCTTGTC [14125-144_38]
Kd [7, 23]: > 1000 nM

TGGCGAACTCCCTGAATGCTCTTGTCT [14125-144_34]
Kd [7, 23]: > 1000 nM

TGGCGAACTCCCTGAATGCTCTTGTCTTA [14125-144_26]
Kd [7, 23]: 5.03 nM

TGGCGAACTCCCTGAATGCTCTTGTCTTAA [14125-144_22]
Kd [7, 23]: 3.55 nM

TGGCGAACTCCCTGAATGCTCTTGTCTTAAGTCCCCAACA [14125-144_8]
Kd [7, 23]: 6.82 nM

TTTTCAGTTGGATCCAGTACCTGGCTGGAGAGAA [5406-56_11]
Kd [7, 23]: > 1000 nM
